Source: US20180362643A1 (Amgen, published 2018)
Ends that are not written are not given here.

B1: mAb2 (antibody, V domains shown)
VH: QSLEESGGGLVQPEGSLTLTCTASGFSFNSSSYMCWVRQAPGKGLEWIGCIFTGSSGNTYYATWAQGRFTISKTSTTVTLEMTSLTAADTATYFCARDRAYFLVGYFYATYYFDLWGPGTLVTVSS
VL: DVVMTQTPSPVSAQVGGTVTINCQASESIDSDLSWYQQKPGQPPKLLIYRTFTLESGVPSRFKGSGSGTDYTLTISDLECADAAIYYCQCTDGSSISGSYGWDAFGGGTEVVVKG
notes: Rabbit monoclonal antibody (SLAM), recombinant; also called monoclonal anti-PACAP antibody 2; 2 (c81)
B2: mAb6 (antibody, V domains shown)
VH: QLEESGGGLVQPGASLTLTCTTSGFSLSDNYLCWVRQAPGRGLEWVACIGIVLRSTGATYYASWAEGRFTISKTSPTTVTLEMTSLTAADTATYFCALDLGYGGPLWGPGTLVTVSS
VL: AQVLTQTPASVSAAVGGTVTINCQASQSVYNNKNLAWYQQKPGQPPKLLIYFSSTLASGVPSRFRGSGSGTQFTLTISGVQCGDAATYYCLGEFGSIWAFGGGTEVVVKG
notes: Rabbit monoclonal antibody (SLAM), recombinant; also called monoclonal anti-PACAP antibody 6; 6 (c55)
B3: mAb5 (antibody, V domains shown)
VH: QSVEESGGRLVTPGTPLTLTCTVSGFSLSTYNMCWVRQAPGKGLEWVGFINSDDSAYYASWAKGRFTFSKTSTTVDLKIASPTTEDTATYFCARYDWDYYYSRLDLWGPGTLVTVSS
VL: DIVLTQTPASVSAAVGGTVSISCQSSESVYNNNYLSWFQQKPGQPPKLLIYGASTLASGVPSRFEGSGSGTQFTLTISDVQCDDAATYYCLGDYIIIENIFGGGTEVVVKG
notes: Rabbit monoclonal antibody (SLAM), recombinant; also called monoclonal anti-PACAP antibody 5; 5 (c71)

Legend:
[1] = biological target: T1, full-length human PACAP38 (human, not fully specified); assay: cell-based or functional assay
T1 peptide: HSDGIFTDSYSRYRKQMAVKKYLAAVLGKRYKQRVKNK

human PACAP27 = biological target: T2, human PACAP27 (human, not fully specified); assay: cell-based or functional assay
T2 peptide: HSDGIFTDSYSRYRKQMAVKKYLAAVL

[2] = biological target: T3, vasoactive intestinal peptide (VIP) (human); assay: ELISA screen of B-cell culture supernatant
T3 construct: also called human VIP
T3 peptide: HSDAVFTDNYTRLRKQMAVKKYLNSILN

[3] = biological target: T3, vasoactive intestinal peptide (VIP); assay: ELISA screen of B-cell culture supernatant; VIP at 100 ng/mL
[4] = biological target: T4, carboxy terminal PACAP38 peptide (amino acids 28-38) (human, ends and bridges not checked); assay: ELISA screen of B-cell culture supernatant; C-terminal peptide at 500 ng/mL
T4 construct: also called C-terminal Peptide; C-terminal PACAP peptide
T4 peptide: GKRYKQRVKNK
Source text: (§1) Rabbits were immunized with human PACAP38 peptide ([…]; SEQ ID NO: 1). Monoclonal antibodies were generated from the immunized rabbits using the Selected Lymphocyte Antibody Method (SLAM) as described in Babcook et al., Proc. Natl. Acad. Sci. USA, Vol. 93: 7843-7848, 1996. Briefly, B cells were harvested from spleens from the immunized rabbits and expanded in culture. The supernatant from the expanded B-cell cultures was initially screened for binding to an amino terminal PACAP38 peptide ([…]; SEQ ID NO: 5) and a carboxy terminal PACAP38 peptide ([…]; SEQ ID NO: 4) using an ELISA assay. From the initial screen, 2,935 N-terminal and/or C-terminal binders were identified. The affinity of these antibodies for full-length human PACAP38 (SEQ ID NO: 1) was assessed by ELISA assay.

[5] = biological target: T1, full-length human PACAP38; assay: ELISA screen of B-cell culture supernatant; full-length PACAP38 at 10 ng/mL
Source text: as §1

[6] = biological target: T5, PACAP38 peptide fragment 6-20 (human); assay: SPR (Biacore 3000), solution competition with the peptide for antibody binding to immobilised full-length PACAP38; % inhibition
T5 construct: also called peptide No. 13
T5 peptide: FTDSYSRYRKQMAVK
Procedure: (§2) The binding epitopes of anti-PACAP antibodies were evaluated by using the Biacore 3000 biosensor-based instrument (GE Healthcare USA). The Biacore 3000 instrument utilizes surface plasmon resonance (SPR) technology to measure mass increase on the sensor-chip surface. The binding interactions are measured in real-time and recorded as Response Units (RU). Each binding profile (cycle) is stored in a “sensorgram” in real-time. Generally, Biacore technology entails immobilizing a ligand of interest on to a flow-cell of the sensor-chip via a coupling chemistry. The analyte (e.g. putative binding partner to the ligand of interest) is injected across the immobilized ligand allowing it to bind to the ligand-immobilized surface. The magnitude of the response is directly proportional to the mass increase on the immobilized surface due to the binding of the analyte.
(§3) In this experiment, various peptide fragments of PACAP38 were incubated with each of the six antibodies (mAb1, mAb2, mAb3, mAb4, mAb5, and mAb6) described in Example 2 and evaluated for their ability to inhibit binding of the antibodies to full-length PACAP38 immobilized on the sensor-chip. The binding epitopes for each of the antibodies were deduced from the set of peptides that were able to inhibit the binding of each antibody to full-length PACAP38.
(§4) Each of the six anti-PACAP antibodies was incubated at a 1:200 molar ratio (Ab: peptide fragment) with each of the peptide fragments in Table 9 at an ambient temperature for 2 hours prior to analysis. […] A second control containing 6.5 nM antibody was prepared in sample diluent to be used as the untreated control sample for each antibody. Full-length PACAP38, buffer, and each peptide fragment were also tested to evaluate non-specific binding to the immobilized PACAP38 surface.

[7] = biological target: T6, PACAP38 peptide fragment 6-37 (human); assay: SPR (Biacore 3000), solution competition: antibody pre-incubated 2 h with the peptide at 1:200 molar ratio (Ab:peptide), then injected over immobilised full-length PACAP38; readout % inhibition of antibody binding (filing counts >50 % as reactive)
T6 construct: also called peptide No. 3
T6 peptide: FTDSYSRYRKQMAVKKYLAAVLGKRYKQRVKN
Procedure: as §2, §3, §4

[8] = biological target: T7, PACAP38 peptide fragment 14-38 (human, not fully specified); assay: as above
T7 construct: also called peptide No. 7
T7 peptide: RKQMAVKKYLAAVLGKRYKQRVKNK
Procedure: as §2, §3, §4

[9] = biological target: T8, PACAP38 peptide fragment 6-38 (human, not fully specified); assay: as above
T8 construct: also called peptide No. 11
T8 peptide: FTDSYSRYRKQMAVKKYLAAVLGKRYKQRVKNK
Procedure: as §2, §3, §4

[10] = biological target: T4, carboxy terminal PACAP38 peptide (amino …); assay: ELISA screen of B-cell culture supernatant
31-38 = biological target: T9, 31-38 (ends and bridges not checked); assay: SPR (Biacore 3000), solution competition with the peptide for antibody binding to immobilised full-length PACAP38; % inhibition
T9 construct: also called PACAP38 peptide fragment 31-38; peptide No. 5
T9 peptide: YKQRVKNK
Procedure: as §2, §3, §4

30-37 = biological target: T10, 30-37; assay: as above
T10 construct: also called PACAP38 peptide fragment 30-37; peptide No. 19
T10 peptide: RYKQRVKN
Procedure: as §2, §3, §4

[11] = biological target: T11, PACAP38 peptide fragment 34-38 (human, ends and bridges not checked); assay: as above
T11 construct: also called peptide No. 17; RVKNK
T11 peptide: RVKNK
Procedure: as §2, §3, §4

[12] = biological target: T12, amino terminal PACAP38 peptide (amino acids 1-13) (human); assay: ELISA screen of B-cell culture supernatant; N-terminal peptide at 500 ng/mL; ELISA screen of B-cell culture supernatant (Example 1); N-terminal peptide 500 ng/mL; optical density
T12 construct: also called N-terminal Peptide; N-terminal PACAP peptide
T12 peptide: HSDGIFTDSYSRY
Source text: as §1

Binder | IC50: inhibition of PACAP38 (10 pM)-induced activation of human PAC1 receptor, cAMP assay in SH-SY5Y (CRL-2266) cells, POC versus antibody concentration [1] [nM] | IC50: inhibition of PACAP27 (10 pM)-induced activation of human PAC1 receptor, cAMP assay in SH-SY5Y (CRL-2266) cells, POC versus antibody concentration (human PACAP27) | binding result [2] | Optical Density [3] [OD] | Optical Density [4] [OD] | Optical Density [5] [OD] | binding result [6] | binding result [7] | binding result [8] | binding result [9] | binding result [10] | binding result (31-38) | binding result (30-37) | binding result [11] | Optical Density [12] [OD]
B1 | 0.4 | > 1 uM | no binding (tested: 100 ng/mL) | 0.09 | 3.74 | 3.39 | no binding (tested: 1:200 molar ratio (Ab:peptide)) | binds | binds | binds |  |  |  |  | 
B2 | 0.6 | 0.5 nM |  | 0.95 | 0.05 | 3.55 | no binding (tested: 1:200 molar ratio (Ab:peptide)) | binds | binds | binds | no binding (tested: 500 ng/mL) | no binding (tested: 1:200 molar ratio (Ab:peptide)) | no binding (tested: 1:200 molar ratio (Ab:peptide)) | no binding (tested: 1:200 molar ratio (Ab:peptide)) | 4.24
B3 | 1 | 26 nM | no binding (tested: 100 ng/mL) | 0.12 | 0.05 | 3.21 | no binding (tested: 1:200 molar ratio (Ab:peptide)) | binds |  | binds | no binding (tested: 500 ng/mL) | no binding (tested: 1:200 molar ratio (Ab:peptide)) | no binding (tested: 1:200 molar ratio (Ab:peptide)) | no binding (tested: 1:200 molar ratio (Ab:peptide)) | 1.34
